B1: BTB/POZ domain-containing protein KCTD16 (Homo sapiens), Q68DU8 (parent)
chain: MALSGNCSRYYPREQGSAVPNSFPEVVELNVGGQVYFTRHSTLISIPHSLLWKMFSPKRDTANDLAKDSKGRFFIDRDGFLFRYILDYLRDRQVVLPDHFPEKGRLKREAEYFQLPDLVKLLTPDEIKQSPDEFCHSDFEDASQGSDTRICPPSSLLPADRKWGFITVGYRGSCTLGREGQADAKFRRVPRILVCGRISLAKEVFGETLNESRDPDRAPERYTSRFYLKFKHLERAFDMLSECGFHMVACNSSVTASFINQYTDDKIWSSYTEYVFYREPSRWSPSHCDCCCKNGKGDKEGESGTSCNDLSTSSCDSQSEASSPQETVICGPVTRQTNIQTLDRPIKKGPVQLIQQSEMRRKSDLLRTLTSGSRESNMSSKKKAVKEKLSIEEELEKCIQDFLKIKIPDRFPERKHPWQSELLRKYHL
partner: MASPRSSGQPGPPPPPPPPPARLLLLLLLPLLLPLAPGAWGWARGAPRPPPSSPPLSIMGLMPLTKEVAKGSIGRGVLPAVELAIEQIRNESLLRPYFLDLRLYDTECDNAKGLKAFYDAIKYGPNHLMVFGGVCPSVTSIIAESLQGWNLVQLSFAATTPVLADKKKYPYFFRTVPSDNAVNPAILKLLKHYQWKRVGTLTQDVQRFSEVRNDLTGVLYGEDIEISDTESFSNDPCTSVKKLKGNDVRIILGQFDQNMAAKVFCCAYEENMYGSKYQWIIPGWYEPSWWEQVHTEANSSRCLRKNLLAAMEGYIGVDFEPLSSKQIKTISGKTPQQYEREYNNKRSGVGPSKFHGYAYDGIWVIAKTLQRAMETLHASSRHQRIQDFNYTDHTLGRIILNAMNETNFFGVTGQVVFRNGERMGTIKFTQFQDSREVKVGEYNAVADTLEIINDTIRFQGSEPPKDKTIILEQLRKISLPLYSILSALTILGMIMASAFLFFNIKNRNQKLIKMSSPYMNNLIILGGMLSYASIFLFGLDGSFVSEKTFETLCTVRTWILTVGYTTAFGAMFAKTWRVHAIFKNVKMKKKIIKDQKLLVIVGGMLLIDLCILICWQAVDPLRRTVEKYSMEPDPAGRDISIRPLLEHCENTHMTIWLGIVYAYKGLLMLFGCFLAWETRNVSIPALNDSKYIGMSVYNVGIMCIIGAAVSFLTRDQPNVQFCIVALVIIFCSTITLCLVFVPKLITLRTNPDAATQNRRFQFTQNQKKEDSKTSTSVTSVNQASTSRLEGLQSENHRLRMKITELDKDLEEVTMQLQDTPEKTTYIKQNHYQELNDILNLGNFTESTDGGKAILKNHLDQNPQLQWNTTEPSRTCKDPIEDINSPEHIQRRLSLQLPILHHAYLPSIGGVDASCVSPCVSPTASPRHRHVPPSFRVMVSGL

Variants of: B1
Settings: with gabr2_human GABBR2, O75899

Variant	effect of a mutation on the interaction
F80A	disrupting interaction strength

From IntAct's records for PubMed 30814734
